Results on seven sequences are retold here after paper PMC9946822.

The target in the data set is MtAHL1 (Medicago truncatula) (UniProt G7JGG2). Nature of the data set: EMSA. To be noted: EMSA as in Chen (ref. 37), 10 ng probe and 200 ng protein (titration 0-300 ng), SYBR Gold stain; binding buffer, pH and temperature not stated; protein eluted ….
MtAHL1 (Medicago truncatula), sequence (G7JGG2 entry or part of it): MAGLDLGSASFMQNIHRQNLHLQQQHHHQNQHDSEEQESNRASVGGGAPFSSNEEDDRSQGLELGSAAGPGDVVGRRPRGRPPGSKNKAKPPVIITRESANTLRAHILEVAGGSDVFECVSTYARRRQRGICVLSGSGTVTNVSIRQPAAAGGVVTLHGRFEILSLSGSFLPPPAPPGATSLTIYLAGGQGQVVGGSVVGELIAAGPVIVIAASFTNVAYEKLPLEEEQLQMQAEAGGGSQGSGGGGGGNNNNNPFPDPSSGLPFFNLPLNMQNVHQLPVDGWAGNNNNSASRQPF
As to “CCCATTGTTTTTCCCCTTTGCGTGAAATAAGTGTAAAATTATTTTATCACTTTATATAGTAAAAAATCAAATGATATGTTTACATCAACAAAACAGTTTTTAATAATTATGTTGTTGTAATTAATAC (double strand) [probe D]”, the binding result was “binds more weakly”.

For the sequence “CTTTCTTTTATACAAATCATAAAATTATTACTTATAAATAGAGCTCATTATTGTTTAACAACCTTTCATTATTATTTTTTATTTCTTAGCCAGCCTTTCATAATAGAG (double strand) [probe B]”, the binding entry is recorded as “binds more weakly”.

With “GAAAGTAATAATTTTGAGACATCTATTCTATGAGCCAAAGAGACAACTACGATACATCAACGTATTAAAGAGACATTTAATAATTATTTTAATTTTCAAAAAGTATTAATTAC (double strand) [probe C]”, the binding result was “binds”.

“GACAACTACGATACATCAACGTATTAAAGAGACATTTAATAATTATTTTAATTTTCAAAAAGTATTAATTACAACAACATAATTATTAAAAACTGTTTTGTTGATGTAAACATATC (double strand) [probe G]”: the binding result is given as “binds”.

For “GAGATAGGAAAACCAATATTATATTATGTTGATATGAGTGGGTGTGGAATCACACAACGTGAATAAGGTCTCTTGTTTGAGTCTTGTGGTTAAATAAAACGTG (double strand) [probe A]”, the binding entry is “binds more weakly”.

On to “GTTAAACAATAATGAGCTCTATTTATAAGTAATAATTTTATGATTTGTATAAAAGAAAGTAATAATTTTGAGACATCTATTCTATGAGCCAAAGAGACAAC (double strand) [probe F]”, for which the binding result is given as “binds more weakly”.

On to “GTTTAACAACCTTTCATTATTATTTTTTATTTCTTAGCCAGCCTTTCATAATAGAGATAGGAAAACCAATATTATATTATGTTGATATGAGTGGGTGTGGAATCA (double strand) [probe E]”, for which the binding result is “binds more weakly”.
